Data reported in paper doi:10.64898/2025.12.19.695442, “TRIM37 recognizes a bipartite degron to ubiquitinate centrosome substrates” (bioRxiv, 2025).
Positions count from the first letter of the chain named. Names may count otherwise.

B1: TRIM37 (enzyme, UniProt O94972 1-964, looked up)
chain: MDEQSVESIAEVFRCFICMEKLRDARLCPHCSKLCCFSCIRRWLTEQRAQCPHCRAPLQLRELVNCRWAEEVTQQLDTLQLCSLTKHEENEKDKCENHHEKLSVFCWTCKKCICHQCALWGGMHGGHTFKPLAEIYEQHVTKVNEEVAKLRRRLMELISLVQEVERNVEAVRNAKDERVREIRNAVEMMIARLDTQLKNKLITLMGQKTSLTQETELLESLLQEVEHQLRSCSKSELISKSSEILMMFQQVHRKPMASFVTTPVPPDFTSELVPSYDSATFVLENFSTLRQRADPVYSPPLQVSGLCWRLKVYPDGNGVVRGYYLSVFLELSAGLPETSKYEYRVEMVHQSCNDPTKNIIREFASDFEVGECWGYNRFFRLDLLANEGYLNPQNDTVILRFQVRSPTFFQKSRDQHWYITQLEAAQTSYIQQINNLKERLTIELSRTQKSRDLSPPDNHLSPQNDDALETRAKKSACSDMLLEGGPTTASVREAKEDEEDEEKIQNEDYHHELSDGDLDLDLVYEDEVNQLDGSSSSASSTATSNTEENDIDEETMSGENDVEYNNMELEEGELMEDAAAAGPAGSSHGYVGSSSRISRRTHLCSAATSSLLDIDPLILIHLLDLKDRSSIENLWGLQPRPPASLLQPTASYSRKDKDQRKQQAMWRVPSDLKMLKRLKTQMAEVRCMKTDVKNTLSEIKSSSAASGDMQTSLFSADQAALAACGTENSGRLQDLGMELLAKSSVANCYIRNSTNKKSNSPKPARSSVAGSLSLRRAVDPGENSRSKGDCQTLSEGSPGSSQSGSRHSSPRALIHGSIGDILPKTEDRQCKALDSDAVVVAVFSGLPAVEKRRKMVTLGANAKGGHLEGLQMTDLENNSETGELQPVLPEGASAAPEEGMSSDSDIECDTENEEQEEHTSVGGFHDSFMVMTQPPDEDTHSSFPDGEQIGPEDLSFNTDENSGR
notes: TRIM37, E3 ubiquitin ligase; 459-964; The co-immunoprecipitation methods say only 'TRIM37 (1 ug)', the same amount as the Abcam protein of the ubiquitination assay; also called purified TRIM37; source: bought: Abcam ab269066
B2: TRIM37(C18R) (enzyme, UniProt O94972 1-964, looked up)
chain: B1 chain with C18R
notes: TRIM37 with C18R; cross-links are reported from the N-terminus (a.a. 1-458) and the tail (a.a. 459-964); source: purified
B3: Cep192 C-terminus fragment (2070-2537 aa), GFP-tagged (domain or fragment, UniProt Q8TEP8-3 2070-2537, looked up)
chain: REFLQPSSKASLESTSDLGASGKHGGNVSLDVLPVKGPQGSPLLSRAARPPLDQLASEEPWTVLPEHLILVAPSPCDMAKTGRFQIVNNSVRLLRFELCWPAHCLTVTPQHGCVAPESKLQILVSPNSSLSTKQSMFPWSGLIYIHCDDGQKKIVKVQIREDLTQVELLTRLTSKPFGILSPVSEPSVSHLVKPMTKPPSTKVEIRNKSITFPTTEPGETSESCLELENHGTTDVKWHLSSLAPPYVKGVDESGDVFRATYAAFRCSPISGLLESHGIQKVSITFLPRGRGDYAQFWDVECHPLKEPHMKHTLRFQLSGQSIEAENEPENACLSTDSLIKIDHLVKPRRQAVSEASARIPEQLDVTARGVYAPEDVYRFRPTSVGESRTLKVNLRNNSFITHSLKFLSPREPFYVKHSKYSLRAQHYINMPVQFKPKSAGKFEALLVIQTDEGKSIAIRLIGEALGKN
notes: Cep192 residues 2070-2537 (ASH6, ASH7, ASH8 and the IDRs between them); also called C-terminal Cep192; Cep192 C-terminal fragment; source: purified (Ni-NTA, gel filtration)

Experiments:
GFP-Cep192(IDR+ASH8) = assay: pull-down; supernatant depletion: 30 nM TRIM37 with a range of GFP-Cep192(IDR+ASH8) concentrations and GFP-Trap magnetic particles, 25 mM HEPES pH 7.4, 150 mM KCl, 1 mM DTT, 1 hr at room temperature; unbound TRIM37 in the supernatant by Western blot; one phase association fit
[1] = target: Centrobin peptide motif (Homo sapiens) (UniProt Q8N137); conditions: cited from earlier work
[2] = target: T1, full-length Cep192 tagged with GFP (UniProt Q8TEP8-3 1-2537); assay: pull-down; purified GFP fusion (1 uM) incubated with TRIM37 (1 ug) 1 hr at 37°C, precipitated with GFP-Trap magnetic particles; washes 150 mM KCl, 25 mM HEPES, 1% glycerol, 0.05% NP-40, last wash 500 mM KCl; Western blot against TRIM37; conditions: both partners purified
T1 construct: Cep192, full length (2537 aa by the printed range 2070-2537); MW with GFP = 307 kDa; also called GFP-Cep192; source: baculovirus-infected SF9 insect cells, purified (Ni-NTA, gel filtration)

[3] = target: the molecule itself; assay: cross-linking; XL-MS: 5 uM TRIM37(C18R) and 5 uM IDR+ASH8, 100 nM ZnCl2, 25 mM HEPES, 150 mM KCl pH 7.4, 20 min at 37°C, 1 mM DSSO 5 min; band of the complex cut from SDS-PAGE; calculated FDR <1%
TRIM37 = target: B1; assay: pull-down; purified GFP fusion (1 uM) incubated with TRIM37 (1 ug) 1 hr at 37°C, precipitated with GFP-Trap magnetic particles; washes 150 mM KCl, 25 mM HEPES, 1% glycerol, 0.05% NP-40, last wash 500 mM KCl; Western blot against TRIM37; conditions: both partners purified

Molecule: TRIM37 (from UniProt O94972 1-964)
- Kd (GFP-Cep192(IDR+ASH8)): 0.075 µM

Molecule: TRIM37 MATH (from UniProt O94972)
- Kd [1]: 14 µM

Molecule: B1
- binding result [2]: binds

Molecule: B2
- binding result [3]: binds

Molecule: B3
- binding result (TRIM37): binds
